In the supplement of paper PMC7877785:
± gives the uncertainty stated by the source.

Assay: self-splicing fitness, log relative to wild type (ln ratio); higher = more splicing; Tetrahymena group I intron in knt gene, E. coli kanamycin selection, DiMSum; sequences stand for … in CUCUCU…GGAGGGAAAAGUUAUCAGGCAUGCACCUGGUAGCUAGUCUUUAAACCAAUAGAUUGCAUCGGUUUAAAAGGCAAGACCGUCAAAUUGCGGGAAAGGGGUCAACAGCCGUUCAGUACCAAGUCUCAGGGGAAACUUUGAGAUGGCCUUGCAAAGGGUAUGGUAAUAAGCUGACGGACAUGGUCCUAACCACGCAGCCAAGUCCUAAGUCAACAGAUCUUCUGUUGAUAUGGAUGCAGUUCACAGACUAAAUGUCGGUCGGGGAAGAUGUAUUCUUCUCAUAAGAUAUAGUCGGACCUCUCCUUAAUGGGAGCUAGCGGAUGAAGUGAUGCAACACUGGAGCCGCUGGGAACUAAUUUGUAUGCGAAAGUAUAUUGAUUAGUUUUGGAGUACUCGUGGUCG
In short: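 The eight P1ex-region nucleotides of an intron in the knt kanamycin-resistance gene on pET-22b(+) were all randomised and the library put into E. coli BL21(DE3). Six replicate transformations were grown overnight at 37°C or 30°C on LB agar with or without 25 μg/mL kanamycin, together with 100 μg/mL carbenicillin, 50 μM IPTG and 0.2% rhamnose. Colonies were pooled and amplicon-sequenced on an Illumina HiSeq 2500. Fitness from DiMSum is the error-weighted combination of wild-type-normalised replicate fold changes, kanamycin over none.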

| Sequence | self-splicing fitness (ln) (30 °C) | self-splicing fitness (ln) (37 °C) |
| --- | --- | --- |
| ACAAAGCAAUAUUACGAGAG | -2.93 ± 0.16 | -1.1 ± 0.1 |
| GGUCAGCAAUAUUACGAUAU | 0.154 ± 0.071 | 0.391 ± 0.082 |
| GUCCAGCAAUAUUACGUAGG | -2.31 ± 0.13 | -1.84 ± 0.15 |
| GCUGAGCAAUAUUACGUCGU | -2.05 ± 0.097 | -1.52 ± 0.12 |
| UUUCAGCAAUAUUACGCGUG | -1.02 ± 0.082 | -0.508 ± 0.094 |
| AAUGAGCAAUAUUACGACCC | -3.25 ± 0.32 | 0.0637 ± 0.21 |
| ACGCAGCAAUAUUACGGCUA | -0.12 ± 0.064 | -0.215 ± 0.075 |
| GAAAAGCAAUAUUACGGGUA | -1.29 ± 0.1 | -0.306 ± 0.095 |
| CAACAGCAAUAUUACGUGCG | -0.886 ± 0.053 | -0.129 ± 0.074 |
| GAGCAGCAAUAUUACGUCCU | -0.165 ± 0.12 | -0.134 ± 0.16 |
| UUCUAGCAAUAUUACGGUGG | -4.34 ± 0.39 | -2.5 ± 0.26 |
| GAUUAGCAAUAUUACGAACG | -1.09 ± 0.12 | 0.232 ± 0.13 |
| AAAUAGCAAUAUUACGUCUG | -1.3 ± 0.068 | -0.843 ± 0.088 |
| UUUUAGCAAUAUUACGCCCU | -2.16 ± 0.35 | -0.426 ± 0.28 |
| GGUGAGCAAUAUUACGUAGA | -3.01 ± 0.33 | -2.19 ± 0.29 |
| UGACAGCAAUAUUACGUAGC | -4.08 ± 0.29 | -2.28 ± 0.28 |
| AAGCAGCAAUAUUACGUUGA | -2.89 ± 0.13 | -1.51 ± 0.11 |
| AGACAGCAAUAUUACGUUCC | -2.2 ± 0.16 | -1.77 ± 0.18 |
| CUCUAGCAAUAUUACGUUUG | -3.43 ± 0.13 | -2.27 ± 0.14 |
| CAAUAGCAAUAUUACGAGGA | -2.82 ± 0.26 | -2.07 ± 0.27 |
| AUUAAGCAAUAUUACGUCAU | -1.51 ± 0.1 | -0.717 ± 0.12 |
| GAAAAGCAAUAUUACGGGGA | -1.38 ± 0.16 | -2.44 ± 0.23 |
| GGCCAGCAAUAUUACGGUUC | -3.72 ± 0.17 | -0.463 ± 0.12 |
| CGCAAGCAAUAUUACGCUAU | -3.23 ± 0.17 | -3.15 ± 0.22 |

| Sequence | self-splicing fitness (ln) (30 °C) | self-splicing fitness (ln) (37 °C) |
| --- | --- | --- |
| UAAAAGCAAUAUUACGCGCU | -1.22 ± 0.14 | 0.0478 ± 0.17 |
| GGUAAGCAAUAUUACGCGGG | -3.28 ± 0.17 | -2.02 ± 0.2 |
| UGGGAGCAAUAUUACGGUCA | -0.375 ± 0.12 | -0.291 ± 0.14 |
| UAACAGCAAUAUUACGUAAU | -3.27 ± 0.14 | -2.23 ± 0.14 |
| UUCCAGCAAUAUUACGGUAU | -2.13 ± 0.11 | -1.5 ± 0.12 |
| AGGCAGCAAUAUUACGCGGU | -3.61 ± 0.19 | -2.98 ± 0.17 |
| GCGUAGCAAUAUUACGCAAC | -3.87 ± 0.18 | -2.33 ± 0.17 |
| CAAUAGCAAUAUUACGUAAG | 0.0257 ± 0.049 | 0.121 ± 0.062 |
| GUGUAGCAAUAUUACGUUCG | -1.65 ± 0.091 | -0.693 ± 0.11 |
| CCCGAGCAAUAUUACGUGAA | -3.43 ± 0.37 | -1.87 ± 0.34 |
| GGCCAGCAAUAUUACGUACU | -0.417 ± 0.08 | -0.256 ± 0.093 |
| AGAUAGCAAUAUUACGGCAC | -1.52 ± 0.16 | -0.639 ± 0.23 |
| GGCCAGCAAUAUUACGAAAC | -0.973 ± 0.079 | 0.00581 ± 0.1 |
| ACGAAGCAAUAUUACGUUCA | -1.14 ± 0.05 | -0.417 ± 0.057 |
| AUUCAGCAAUAUUACGACGG | -2.61 ± 0.19 | -1.52 ± 0.17 |
| CAGGAGCAAUAUUACGUGAG | -1.42 ± 0.084 | -0.711 ± 0.098 |
| UUUUAGCAAUAUUACGCAAG | -1.08 ± 0.15 | -1.14 ± 0.21 |
| GACGAGCAAUAUUACGCGUC | -2.57 ± 0.5 |  |
| CUUCAGCAAUAUUACGAUAG | -0.458 ± 0.07 | -0.818 ± 0.1 |
| UAAGAGCAAUAUUACGUGAC | -3.63 ± 0.27 | -2.8 ± 0.34 |
| AAGCAGCAAUAUUACGAAUC | -2.44 ± 0.16 | -2.12 ± 0.2 |
| ACUCAGCAAUAUUACGCCGU | -1.24 ± 0.076 | -0.58 ± 0.093 |
| CGACAGCAAUAUUACGCUAU | -3.71 ± 0.23 | -2.04 ± 0.14 |
